# Legend:
# [1] = molecular target: Carcinoembryonic Antigen (CEA) (human) (UniProt P06731); experiment: SPR at 25 C; IL-2 qm
# [2] = molecular target: Carcinoembryonic Antigen (CEA) (human) (UniProt P06731); experiment: SPR at 25 C; IL-2 wt
# [3] = molecular target: IL-2R βγ heterodimer on cells (NK92 cells; human NK cells and CD8+ T cells) (human) (UniProt P14784); experiment: cell-based or functional assay
# [4] = molecular target: human IL-2R βγ heterodimer (IL-2R β subunit-Fc(hole) / IL-2R γ subunit-Fc(knob) fusion) (human); experiment: SPR, human IL-2R βγ heterodimer immobilized on the chip, construct as analyte, 25 C; apparent KD, 1:1 fit
# human IL-2R βγ heterodimer (IL-2R β subunit-Fc(hole) / IL-2R γ subunit-Fc(knob) fusion) (human), sequence (beta, as listed by the source limits assumed, form in doubt, chain 1 of 2): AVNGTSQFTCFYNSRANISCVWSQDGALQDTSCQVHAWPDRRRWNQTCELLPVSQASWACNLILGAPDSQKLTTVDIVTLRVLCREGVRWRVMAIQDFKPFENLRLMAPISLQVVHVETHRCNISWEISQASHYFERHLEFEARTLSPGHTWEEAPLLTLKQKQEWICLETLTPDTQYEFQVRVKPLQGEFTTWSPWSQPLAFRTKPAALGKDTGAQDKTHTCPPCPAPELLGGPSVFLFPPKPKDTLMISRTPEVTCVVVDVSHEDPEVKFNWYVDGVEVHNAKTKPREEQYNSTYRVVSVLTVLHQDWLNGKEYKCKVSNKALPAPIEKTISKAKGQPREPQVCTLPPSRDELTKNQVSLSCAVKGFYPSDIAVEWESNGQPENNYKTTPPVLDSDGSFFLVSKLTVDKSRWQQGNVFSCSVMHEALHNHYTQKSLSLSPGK
# human IL-2R βγ heterodimer (IL-2R β subunit-Fc(hole) / IL-2R γ subunit-Fc(knob) fusion) (human), sequence (gamma, as listed by the source limits assumed, form in doubt, chain 2 of 2): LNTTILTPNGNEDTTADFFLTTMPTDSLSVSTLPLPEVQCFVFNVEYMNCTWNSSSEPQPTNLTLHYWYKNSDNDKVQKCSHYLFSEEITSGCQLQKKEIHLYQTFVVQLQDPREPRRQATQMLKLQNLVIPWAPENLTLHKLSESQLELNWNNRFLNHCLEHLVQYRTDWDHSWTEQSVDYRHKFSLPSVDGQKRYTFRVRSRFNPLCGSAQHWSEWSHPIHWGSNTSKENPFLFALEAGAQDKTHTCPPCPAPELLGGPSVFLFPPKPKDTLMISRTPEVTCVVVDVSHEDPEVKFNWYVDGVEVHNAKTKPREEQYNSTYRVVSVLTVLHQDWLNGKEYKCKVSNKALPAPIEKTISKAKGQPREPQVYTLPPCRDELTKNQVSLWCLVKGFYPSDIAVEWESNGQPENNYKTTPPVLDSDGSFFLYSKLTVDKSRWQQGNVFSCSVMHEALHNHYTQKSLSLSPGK
# [5] = molecular target: human FAP expressed on stably transfected HEK 293 cells (human) (UniProt Q12884); experiment: flow cytometry on HEK293 cells stably transfected with human FAP, 4 C, FITC anti-human F(ab')2 detection
# [6] = molecular target: human Fibroblast Activation Protein (FAP), recombinant (human) (UniProt Q12884); experiment: SPR (Biacore), His-tagged human FAP captured by anti-His antibody, construct as analyte, 25 C; apparent bivalent affinity (avidity), 1:1 fit
# Carcinoembryonic Antigen (CEA) (human), sequence (P06731 35-685 limits assumed): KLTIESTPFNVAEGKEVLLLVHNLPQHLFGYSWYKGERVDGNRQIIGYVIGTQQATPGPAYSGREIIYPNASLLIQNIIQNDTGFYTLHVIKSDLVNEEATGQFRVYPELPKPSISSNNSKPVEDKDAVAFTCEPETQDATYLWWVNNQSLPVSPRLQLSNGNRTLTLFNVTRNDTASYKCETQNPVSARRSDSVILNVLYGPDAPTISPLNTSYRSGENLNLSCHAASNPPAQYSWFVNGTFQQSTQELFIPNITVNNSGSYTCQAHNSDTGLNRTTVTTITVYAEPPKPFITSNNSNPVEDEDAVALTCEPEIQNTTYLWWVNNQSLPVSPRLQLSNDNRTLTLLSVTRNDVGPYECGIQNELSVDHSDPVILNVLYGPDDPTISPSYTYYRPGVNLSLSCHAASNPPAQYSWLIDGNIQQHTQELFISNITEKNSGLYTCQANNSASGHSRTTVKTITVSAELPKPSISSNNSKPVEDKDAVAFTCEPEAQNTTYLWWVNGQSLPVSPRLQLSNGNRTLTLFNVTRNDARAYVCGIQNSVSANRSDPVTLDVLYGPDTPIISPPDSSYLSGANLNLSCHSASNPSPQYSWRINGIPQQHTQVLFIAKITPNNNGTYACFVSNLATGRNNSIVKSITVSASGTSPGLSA
# IL-2R βγ heterodimer on cells (NK92 cells; human NK cells and CD8+ T cells) (human), sequence (P14784 27-551, chain 1 of 2): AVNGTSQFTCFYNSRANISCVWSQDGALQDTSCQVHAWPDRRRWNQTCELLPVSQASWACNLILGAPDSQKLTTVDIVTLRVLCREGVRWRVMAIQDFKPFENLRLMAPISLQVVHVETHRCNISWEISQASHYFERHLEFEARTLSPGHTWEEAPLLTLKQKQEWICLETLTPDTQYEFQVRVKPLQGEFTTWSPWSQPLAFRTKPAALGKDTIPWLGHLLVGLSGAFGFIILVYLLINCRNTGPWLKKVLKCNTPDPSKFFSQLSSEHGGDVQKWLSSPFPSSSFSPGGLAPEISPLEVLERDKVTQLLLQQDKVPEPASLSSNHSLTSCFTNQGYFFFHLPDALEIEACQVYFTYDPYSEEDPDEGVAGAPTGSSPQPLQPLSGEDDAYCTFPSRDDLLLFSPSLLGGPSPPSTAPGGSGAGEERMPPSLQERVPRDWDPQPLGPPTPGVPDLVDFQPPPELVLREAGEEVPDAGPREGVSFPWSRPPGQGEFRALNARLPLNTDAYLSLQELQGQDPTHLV
# IL-2R βγ heterodimer on cells (NK92 cells; human NK cells and CD8+ T cells) (human), sequence (P31785 23-369, chain 2 of 2, further chain): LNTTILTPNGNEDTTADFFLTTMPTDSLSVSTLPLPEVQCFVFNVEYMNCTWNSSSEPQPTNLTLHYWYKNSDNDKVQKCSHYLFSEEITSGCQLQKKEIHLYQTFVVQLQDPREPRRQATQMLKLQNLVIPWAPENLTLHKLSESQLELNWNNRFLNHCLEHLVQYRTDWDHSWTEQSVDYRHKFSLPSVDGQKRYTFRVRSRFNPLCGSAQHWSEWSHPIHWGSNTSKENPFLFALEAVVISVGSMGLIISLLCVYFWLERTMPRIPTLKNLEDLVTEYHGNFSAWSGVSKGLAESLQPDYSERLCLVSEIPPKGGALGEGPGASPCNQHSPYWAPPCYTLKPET
substance,measurement,setting,value
CEA-targeted CH1A1A 98/99 2F1-based IgG-IL-2 qm immunoconjugate,Kd,[1],0.4 nM
CEA-targeted CH1A1A 98/99 2F1-based IgG-IL-2 wt immunoconjugate,Kd,[2],0.47 nM
FAP-targeted 4G8-based IgG-IL-2 quadruple mutant (qm) immunoconjugate,fold decrease in STAT5 phosphorylation in NK cells and CD8+ T cells (FACS); potency relative to Proleukin,[3],< 10 fold
same,Kd,[4],5.9 nM
same,EC50,[5],0.9 nM
same,Kd,[6],0.1 nM
